The chains are these.
B1: AS170036 VL1VH1-56N98F108A (scFv)
scFv: QSALTQPRSVSGSPGQSVTISCAGTSSDVGSENYVSWYQQHPGKAPKLMIYQVNKRASGVPDRFSGSKSGNTASLTISGLQAEDEADYYCASYRSSDFNIVFGGGTKLTVLGGGGSGGGGSGGGGSEVQLVESGGGLVQPGGSLRLSCAASGFTFSSYAMSWVRQAPGKGLEWVSTINSGTNSPYYADSVKGRFTISRDNSKNTLYLQMNSLRAEDTAVYYCAKNFFDGSWFLAPPAMDYWGQGTLVTVSSHHHHHH
notes: also called 49-AS170036 VL1VH1-56N98F108A
B2: AS170036 VL1VH1-56N98F108S (scFv)
scFv: B1 scFv with A234S
notes: also called 51-AS170036 VL1VH1-56N98F108S
B3: AS170036 VL1VH1-56Y98I108D (scFv)
scFv: B1 scFv with F98I, N182Y, A234D
notes: also called 44-AS170036 VL1VH1-56Y98I108D
B4: AS170036 VL1VH1-56Y98F108S (scFv)
scFv: B1 scFv with N182Y, A234S
notes: also called 42-AS170036 VL1VH1-56Y98F108S
B5: AS170036 VL1VH1-56Y98I108S (scFv)
scFv: B1 scFv with F98I, N182Y, A234S
notes: also called 45-AS170036 VL1VH1-56Y98I108S
B6: AS170036 VL1VH1-56Y98F108D (scFv)
scFv: B1 scFv with N182Y, A234D
notes: also called 41-AS170036 VL1VH1-56Y98F108D
B7: AS170036 VL1VH1-56N98I108S (scFv)
scFv: B1 scFv with F98I, A234S
notes: also called 54-AS170036 VL1VH1-56N98I108S
B8: AS170036 VL1VH1-57H98F108D (scFv)
scFv: B1 scFv with N182G, S183H, A234D
notes: also called 59-AS170036 VL1VH1-57H98F108D
B9: AS170036 VL1VH1-56Y98F108A (scFv)
scFv: B1 scFv with N182Y
notes: also called 40-AS170036 VL1VH1-56Y98F108A
B10: AS170036 VL1VH1-56Y98Q108A (scFv)
scFv: B1 scFv with F98Q, N182Y
notes: also called 46-AS170036 VL1VH1-56Y98Q108A
B11: AS170036 VL1VH1-56N98Q108A (scFv)
scFv: B1 scFv with F98Q
notes: also called 55-AS170036 VL1VH1-56N98Q108A
B12: AS170036 VL1VH1-56Y98I108A (scFv)
scFv: B1 scFv with F98I, N182Y
notes: also called 43-AS170036 VL1VH1-56Y98I108A
B13: AS170036 VL1VH1-56N98Q108D (scFv)
scFv: B1 scFv with F98Q, A234D
notes: also called 56-AS170036 VL1VH1-56N98Q108D
B14: AS170036 VL1VH1-57H98F108S (scFv)
scFv: B1 scFv with N182G, S183H, A234S
notes: also called 60-AS170036 VL1VH1-57H98F108S
B15: AS170036 VL1VH1-56Y98Q108D (scFv)
scFv: B1 scFv with F98Q, N182Y, A234D
notes: also called 47-AS170036 VL1VH1-56Y98Q108D
B16: AS170036 VL1VH1-56Y98Q108S (scFv)
scFv: B1 scFv with F98Q, N182Y, A234S
notes: also called 48-AS170036 VL1VH1-56Y98Q108S
B17: AS170036 VL1VH1-57H98F108A (scFv)
scFv: B1 scFv with N182G, S183H
notes: also called 58-AS170036 VL1VH1-57H98F108A
B18: AS170036 VL1VH1-56N98Q108S (scFv)
scFv: B1 scFv with F98Q, A234S
notes: also called 57-AS170036 VL1VH1-56N98Q108S
B19: AS170036 VL1VH1-56N98I108A (scFv)
scFv: B1 scFv with F98I
notes: also called 52-AS170036 VL1VH1-56N98I108A
B20: AS170036 VL1VH1-56N98I108D (scFv)
scFv: B1 scFv with F98I, A234D
notes: also called 53-AS170036 VL1VH1-56N98I108D
B21: AS170036 VL1VH1-56N98F108D (scFv)
scFv: B1 scFv with A234D
notes: also called 50-AS170036 VL1VH1-56N98F108D
B22: HS57W (scFv)
scFv: B1 scFv with F98H, N182G, S183W, A234G
notes: AS170036 VL1VH1 scFv mutein
B23: HS57Q (scFv)
scFv: B1 scFv with F98H, N182G, S183Q, A234G
notes: AS170036 VL1VH1 scFv mutein; also called AS170036 VL1VH1-VHS57Q
B24: HS57K (scFv)
scFv: B1 scFv with F98H, N182G, S183K, A234G
notes: AS170036 VL1VH1 scFv mutein; also called AS170036 VL1VH1-VHS57K
B25: HS57R (scFv)
scFv: B1 scFv with F98H, N182G, S183R, A234G
notes: AS170036 VL1VH1 scFv mutein; also called AS170036 VL1VH1-VHS57R
B26: HS57N (scFv)
scFv: B1 scFv with F98H, N182G, S183N, A234G
notes: AS170036 VL1VH1 scFv mutein
B27: HS57F (scFv)
scFv: B1 scFv with F98H, N182G, S183F, A234G
notes: AS170036 VL1VH1 scFv mutein
B28: HP110V (scFv)
scFv: B1 scFv with F98H, N182G, A234G, P236V
notes: AS170036 VL1VH1 scFv mutein
B29: HS57M (scFv)
scFv: B1 scFv with F98H, N182G, S183M, A234G
notes: AS170036 VL1VH1 scFv mutein; also called AS170036 VL1VH1-VHS57M
B30: HP110S (scFv)
scFv: B1 scFv with F98H, N182G, A234G, P236S
notes: AS170036 VL1VH1 scFv mutein
B31: HS57A (scFv)
scFv: B1 scFv with F98H, N182G, S183A, A234G
notes: AS170036 VL1VH1 scFv mutein
B32: HS57T (scFv)
scFv: B1 scFv with F98H, N182G, S183T, A234G
notes: AS170036 VL1VH1 scFv mutein
B33: HS57H (scFv)
scFv: B1 scFv with F98H, N182G, S183H, A234G
notes: AS170036 VL1VH1 scFv mutein; also called AS170036 VL1VH1-VHS57H
B34: HP110T (scFv)
scFv: B1 scFv with F98H, N182G, A234G, P236T
notes: AS170036 VL1VH1 scFv mutein
B35: HS57Y (scFv)
scFv: B1 scFv with F98H, N182G, S183Y, A234G
notes: AS170036 VL1VH1 scFv mutein
B36: HS57D (scFv)
scFv: B1 scFv with F98H, N182G, S183D, A234G
notes: AS170036 VL1VH1 scFv mutein

Numbering of substitutions follows the chain as printed.

In the first assay the target is T1, AFP158/HLA-A*02:01 complex (human).
T1 construct: flowed as analyte in SPR
Briefly: SPR, fold vs AS170036 VL1VH1.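 Also: crude scFv muteins immobilised on a sensor chip, peptide–MHC complex passed over at several concentrations, binding then buffer-driven dissociation, KD estimated from on- and off-rates.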 On the technique in general: Surface plasmon resonance follows binding to a sensor surface in real time, without labels.
Protocol: (§1) The experiment was carried out as follows. The crude scFv protein were captured onto the sensorchip. Different concentrations (320, 160, 40 nM) of AFP158/HLA-A*02:01 complex flowed over the sensorchip surface, and were allowed to bind the antibody fragment for 100 s followed by injection of the running buffer to allow dissociation of the complex. On-rate (kd) and off-rate (kd) were calculated based on association and dissociation curve, and were used to estimate the equilibrium dissociation constant (KD).
The crude scFv muteins were then subjected to SPR affinity measurement by the method mentioned above.
Regarding B1, the Affinity increase was 41.7 fold.
On the same count and under the same terms, the figure for B2 is 17.6 fold; for B3 it is 152 fold; for B4 it is 56.3 fold.
The same measure, in the same setting: under B5 stands 81.5 fold.
Same read-out and setting: under B6 stands 110 fold; under B7, 22.3 fold; under B8, 124 fold.
Regarding B9, the Affinity increase was found to be 142 fold.
Molecule B10 displayed an Affinity increase of 183 fold.
Turning to B11, the Affinity increase stood at 54.1 fold.
Still for that read-out and setting: the figure for B12 is 212 fold.
Still for that read-out and setting: the figure for B13 is 39.1 fold.
The same measure, in the same setting: under B14 stands 66.2 fold; under B15, 122 fold.
B16 returned an Affinity increase of 67.4 fold.
B17 yielded an Affinity increase of 146 fold.
On the same count and under the same terms, the figure for B18 is 20.8 fold.
Regarding B19, the Affinity increase is 62 fold.
On the same count and under the same terms, the figure for B20 is 44.4 fold; for B21 it is 36.4 fold.

A further assay deals with T2, AFP158/HLA-A*02:01 complex (human).
T2 construct: flowed over the chip in SPR; also called AFP158 pro
In words: SPR, KD ratio to AS170036 VL1VH1.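 Also: crude scFv captured on a sensor chip, peptide–HLA complex passed over at several concentrations, association then buffer dissociation, KD derived from on- and off-rates.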
Protocol: as §1
As for B22, the Affinity increase was 0.6 fold.
Still for that read-out and setting: the figure for B23 is 2.4 fold.
For the molecule B24, the Affinity increase worked out at 4.4 fold.
In the case of B25, the Affinity increase was 2.8 fold.
Regarding B26, the Affinity increase was 1.5 fold.
B27: the Affinity increase worked out at 1.4 fold.
Regarding B28, the Affinity increase turned out to be 0.6 fold.
For the molecule B29, the Affinity increase is 2.7 fold.
Consider B30, for which the Affinity increase was 0.8 fold.
On the same count and under the same terms, the figure for B31 is 1.2 fold; for B32 it is 1.1 fold.
Same read-out and setting: the figure for B33 is 6.9 fold; for B34 it is 1.3 fold; for B35 it is 1.2 fold.
On the same count and under the same terms, under B36 stands 1.2 fold.

In another assay the target is T2, AFP158/HLA-A*02:01 complex. In words: SPR, scFv captured, pMHC in flow.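 Also: complex injected at several concentrations over crude scFv, association then running-buffer dissociation, KD estimated from kinetic on- and off-rate constants.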
Protocol: as §1
With B22, binding was characterised by a dissociation constant (Kd) of 380 nM.
In turn, B23 returned a Kd of 100 nM.
For B24, the dissociation constant Kd came to 56 nM.
On to B25, for which the Kd is 88 nM.
The same measure, in the same setting: the figure for B26 is 170 nM.
Consider B27, for which binding was characterised by a dissociation constant (Kd) of 180 nM.
Still for that read-out and setting: the figure for B28 is 400 nM; for B29 it is 90 nM.
Same read-out and setting: under B30 stands 300 nM; under B31, 210 nM; under B32, 220 nM.
Same read-out and setting: the figure for B33 is 35 nM.
Turning to B34, the Kd is 180 nM.
On the same count and under the same terms, under B35 stands 200 nM; under B36, 200 nM.

Another assay concerns the target T1, AFP158/HLA-A*02:01 complex. In words: SPR, crude scFv captured, pMHC analyte.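 Also: complex injected at several concentrations over the chip, association phase then running buffer for dissociation, KD derived from on- and off-rates computed from both curves.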
On to B1, for which binding was characterised by a dissociation constant (Kd) of 5.4 nM, the koff came out at 0.0015 s⁻¹ and the kon is 270000 M⁻¹ s⁻¹.
The molecule B2 displayed a Kd of 13 nM, a koff of 0.0028 s⁻¹ and an on-rate (kon) of 210000 M⁻¹ s⁻¹.
The corresponding values for B3 are 1.5 nM, 0.00038 s⁻¹ and 260000 M⁻¹ s⁻¹.
B4 registered a Kd of 4 nM, a koff of 0.00074 s⁻¹ and an on-rate (kon) of 190000 M⁻¹ s⁻¹.
The corresponding values for B5 are 2.8 nM, 0.0005 s⁻¹ and 180000 M⁻¹ s⁻¹.
The corresponding values for B6 are 2 nM, 0.00054 s⁻¹ and 270000 M⁻¹ s⁻¹.
Molecule B7 came in with a Kd of 10 nM, a koff of 0.0019 s⁻¹ and a kon of 190000 M⁻¹ s⁻¹.
The corresponding values for B8 are 1.8 nM, 0.00053 s⁻¹ and 290000 M⁻¹ s⁻¹.
B9 showed a Kd of 1.6 nM, a koff of 0.00038 s⁻¹ and a kon of 240000 M⁻¹ s⁻¹.
The corresponding values for B10 are 1.2 nM, 0.00028 s⁻¹ and 230000 M⁻¹ s⁻¹.
The corresponding values for B11 are 4.2 nM, 0.001 s⁻¹ and 240000 M⁻¹ s⁻¹.
The corresponding values for B12 are 1.1 nM, 0.00025 s⁻¹ and 240000 M⁻¹ s⁻¹.
Molecule B13 registered a Kd of 5.8 nM, an off-rate constant (koff) of 0.0015 s⁻¹ and a kon of 260000 M⁻¹ s⁻¹.
The corresponding values for B14 are 3.4 nM, 0.00068 s⁻¹ and 200000 M⁻¹ s⁻¹.
In the case of B15, binding was put at a Kd of 1.8 nM, the koff came to 0.00044 s⁻¹ and the kon was determined as 240000 M⁻¹ s⁻¹.
The corresponding values for B16 are 3.3 nM, 0.00055 s⁻¹ and 160000 M⁻¹ s⁻¹.
The corresponding values for B17 are 1.5 nM, 0.0004 s⁻¹ and 260000 M⁻¹ s⁻¹.
The corresponding values for B18 are 11 nM, 0.0019 s⁻¹ and 180000 M⁻¹ s⁻¹.
The molecule B19 registered a Kd of 3.6 nM, a koff of 0.00093 s⁻¹ and an on-rate (kon) of 260000 M⁻¹ s⁻¹.
B20 came in with a Kd of 5.1 nM, a koff of 0.0014 s⁻¹ and a kon of 280000 M⁻¹ s⁻¹.
B21 came in with a dissociation constant (Kd) of 6.2 nM, a koff of 0.0019 s⁻¹ and a kon of 310000 M⁻¹ s⁻¹.

As usually defined, the Kd is a measure of binding affinity in units of concentration. Higher therefore signals weaker binding. For orientation: koff means a measure of how fast the partners let go of each other. Low readings indicate a long-lived complex, high ones a short-lived complex. As a reminder, the kon is the rate constant with which the complex forms.
